Assay results reported in CN114592010A.

Target: NK细胞自身的IL-15受体(IL15Rβγ) (UniProt P14784)
Assay: cell-based or functional assay

Chain of UniProt P14784 (P14784 27-551 limits assumed, chain 1 of 2): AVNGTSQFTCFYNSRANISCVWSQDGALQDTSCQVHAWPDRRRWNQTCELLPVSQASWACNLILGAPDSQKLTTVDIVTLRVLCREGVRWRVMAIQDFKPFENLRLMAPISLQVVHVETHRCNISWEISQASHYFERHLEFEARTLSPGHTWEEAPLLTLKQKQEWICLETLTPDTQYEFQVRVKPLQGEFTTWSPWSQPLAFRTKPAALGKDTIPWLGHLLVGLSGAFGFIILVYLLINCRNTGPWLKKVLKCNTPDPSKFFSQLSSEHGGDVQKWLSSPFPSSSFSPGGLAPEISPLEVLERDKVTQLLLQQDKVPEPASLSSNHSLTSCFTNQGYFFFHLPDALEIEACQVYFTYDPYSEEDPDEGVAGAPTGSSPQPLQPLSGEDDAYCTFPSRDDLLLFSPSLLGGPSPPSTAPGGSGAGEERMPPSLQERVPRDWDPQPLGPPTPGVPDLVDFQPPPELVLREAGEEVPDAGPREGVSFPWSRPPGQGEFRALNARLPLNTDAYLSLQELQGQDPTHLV
Chain of UniProt P14784 (P31785 23-369 limits assumed, chain 2 of 2, further chain): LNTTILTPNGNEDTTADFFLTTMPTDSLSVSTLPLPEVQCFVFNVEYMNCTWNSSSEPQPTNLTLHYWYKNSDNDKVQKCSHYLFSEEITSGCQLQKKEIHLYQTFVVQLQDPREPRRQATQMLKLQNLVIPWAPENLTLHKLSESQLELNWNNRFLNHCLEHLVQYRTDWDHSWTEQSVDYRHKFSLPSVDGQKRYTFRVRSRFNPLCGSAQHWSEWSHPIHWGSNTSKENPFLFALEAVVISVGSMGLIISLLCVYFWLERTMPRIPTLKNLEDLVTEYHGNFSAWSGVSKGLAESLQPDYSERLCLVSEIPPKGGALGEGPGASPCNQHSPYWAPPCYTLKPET

In the case of “膜结合型IL-15 (IL-15-CD8 hinge-CD8 TM融合蛋白) (ligand)”, the 增殖效果 (CCK8), NKMB cells = 实施例3 NK-CAR(NK-CAR)-MbIL-15, 1d (relative to 0d = 1) is reported as 1.66, the 增殖效果 (CCK8), NKMB cells = 实施例3 NK-CAR(NK-CAR)-MbIL-15, 2d (relative to 0d = 1) is reported as 2.37 and the 增殖效果 (CCK8), NKMB cells = 实施例3 NK-CAR(NK-CAR)-MbIL-15, 3d (relative to 0d = 1) is reported as 2.83. It also gave a 增殖效果 (CCK8), NKMB cells = 实施例3 NK-CAR(NK-CAR)-MbIL-15, 4d (relative to 0d = 1) of 4.12, a 增殖效果 (CCK8), TMB cells = 实施例4 NK-CAR(T-CAR)-MbIL-15, 1d (relative to 0d = 1) of 1.67 and a 增殖效果 (CCK8), TMB cells = 实施例4 NK-CAR(T-CAR)-MbIL-15, 2d (relative to 0d = 1) of 2.7. For the same substance, the 增殖效果 (CCK8), TMB cells = 实施例4 NK-CAR(T-CAR)-MbIL-15, 3d (relative to 0d = 1) was 3.63 and the 增殖效果 (CCK8), TMB cells = 实施例4 NK-CAR(T-CAR)-MbIL-15, 4d (relative to 0d = 1) was 7.77.
